# In patent US20220306739A1 (Janssen / Centocor, published 2022):
# Like-named read-outs stand apart in the source and are kept apart here.
# T1: B cell maturation antigen (BCMA) (UniProt Q02223 1-184, limits assumed)
# T1 sequence (looked up): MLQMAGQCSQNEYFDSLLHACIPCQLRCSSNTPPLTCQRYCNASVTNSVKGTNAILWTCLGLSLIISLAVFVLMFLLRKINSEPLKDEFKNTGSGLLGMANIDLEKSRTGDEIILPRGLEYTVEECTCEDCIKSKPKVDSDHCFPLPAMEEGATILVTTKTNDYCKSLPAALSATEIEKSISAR
# B1: anti-TRGV9/anti-BCMA bispecific antibody (VG9SB10SC1087_P19_C03-Fab RF, BCMA-scFv (BCMB519-scFv)) (BCV9B103.001) (bispecific antibody, human IgG1, kappa, L234A L235A)
# heavy: QVQLQESGPGLVKPSQTLSLTCTVSGGSISSGGSYWSWIRQHPGKGLEWIGYIYNSGSTYYNPSLKSRVSMSVDTSKNQFSLKLSSVTAADTAVYYCARDSNYEWFFDLWGPGTLVTVSSASTKGPSVFPLAPSSKSTSGGTAALGCLVKDYFPEPVTVSWNSGALTSGVHTFPAVLQSSGLYSLSSVVTVPSSSLGTQTYICNVNHKPSNTKVDKKVEPKSCDKTHTCPPCPAPEAAGGPSVFLFPPKPKDTLMISRTPEVTCVVVSVSHEDPEVKFNWYVDGVEVHNAKTKPREEQYNSTYRVVSVLTVLHQDWLNGKEYKCKVSNKALPAPIEKTISKAKGQPREPQVYVYPPSREEMTKNQVSLTCLVKGFYPSDIAVEWESNGQPENNYKTTPPVLDSDGSFALVSKLTVDKSRWQQGNVFSCSVMHEALHNRFTQKSLSLSPGK
# light: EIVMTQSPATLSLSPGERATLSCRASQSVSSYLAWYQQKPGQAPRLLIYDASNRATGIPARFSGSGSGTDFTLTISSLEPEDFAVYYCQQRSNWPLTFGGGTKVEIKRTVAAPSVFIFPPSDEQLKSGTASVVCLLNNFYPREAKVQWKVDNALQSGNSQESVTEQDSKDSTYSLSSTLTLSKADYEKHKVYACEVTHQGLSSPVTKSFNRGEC
# scFv: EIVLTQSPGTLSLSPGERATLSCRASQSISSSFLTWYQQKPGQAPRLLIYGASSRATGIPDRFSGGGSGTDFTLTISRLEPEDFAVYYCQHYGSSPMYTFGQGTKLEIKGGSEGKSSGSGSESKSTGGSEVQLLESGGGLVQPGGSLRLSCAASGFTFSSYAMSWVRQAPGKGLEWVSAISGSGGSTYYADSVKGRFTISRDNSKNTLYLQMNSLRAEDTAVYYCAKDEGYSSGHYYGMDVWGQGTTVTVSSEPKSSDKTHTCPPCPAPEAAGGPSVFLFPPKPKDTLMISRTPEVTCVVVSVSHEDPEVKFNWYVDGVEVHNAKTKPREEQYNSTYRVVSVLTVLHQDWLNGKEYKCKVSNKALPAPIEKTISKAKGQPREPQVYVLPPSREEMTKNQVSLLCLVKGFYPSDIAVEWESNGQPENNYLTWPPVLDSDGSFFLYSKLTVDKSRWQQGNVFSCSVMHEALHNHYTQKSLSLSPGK
# B2: anti-TRGV9/anti-BCMA bispecific antibody (VG9SB10SC1087_P18_C12-Fab RF, BCMA-scFv (BCMB519-scFv)) (BCV9B101.001) (bispecific antibody, human IgG1, kappa, L234A L235A)
# heavy: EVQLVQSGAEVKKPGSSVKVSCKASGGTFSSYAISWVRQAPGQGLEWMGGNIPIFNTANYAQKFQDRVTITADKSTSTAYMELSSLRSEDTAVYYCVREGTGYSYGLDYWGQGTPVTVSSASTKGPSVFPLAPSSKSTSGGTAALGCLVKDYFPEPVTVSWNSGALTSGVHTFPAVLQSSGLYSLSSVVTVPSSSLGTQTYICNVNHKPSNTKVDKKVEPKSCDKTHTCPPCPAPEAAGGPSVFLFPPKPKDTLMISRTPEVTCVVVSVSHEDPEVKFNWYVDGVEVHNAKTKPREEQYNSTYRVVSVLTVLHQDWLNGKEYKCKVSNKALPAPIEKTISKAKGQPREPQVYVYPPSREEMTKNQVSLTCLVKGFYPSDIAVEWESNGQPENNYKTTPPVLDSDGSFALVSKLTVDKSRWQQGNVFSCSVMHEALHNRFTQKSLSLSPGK
# light: EIVMTQSPLSSPVTLGQPASISCRSSQSLIHSDGNTYLSWLQQRPGQPPRLLIYKISNRFSGVPDRFSGSGAGTDFTLKISRVEAEDVGIYYCMQAKQFPITFGQGTKVDIKRTVAAPSVFIFPPSDEQLKSGTASVVCLLNNFYPREAKVQWKVDNALQSGNSQESVTEQDSKDSTYSLSSTLTLSKADYEKHKVYACEVTHQGLSSPVTKSFNRGEC
# scFv: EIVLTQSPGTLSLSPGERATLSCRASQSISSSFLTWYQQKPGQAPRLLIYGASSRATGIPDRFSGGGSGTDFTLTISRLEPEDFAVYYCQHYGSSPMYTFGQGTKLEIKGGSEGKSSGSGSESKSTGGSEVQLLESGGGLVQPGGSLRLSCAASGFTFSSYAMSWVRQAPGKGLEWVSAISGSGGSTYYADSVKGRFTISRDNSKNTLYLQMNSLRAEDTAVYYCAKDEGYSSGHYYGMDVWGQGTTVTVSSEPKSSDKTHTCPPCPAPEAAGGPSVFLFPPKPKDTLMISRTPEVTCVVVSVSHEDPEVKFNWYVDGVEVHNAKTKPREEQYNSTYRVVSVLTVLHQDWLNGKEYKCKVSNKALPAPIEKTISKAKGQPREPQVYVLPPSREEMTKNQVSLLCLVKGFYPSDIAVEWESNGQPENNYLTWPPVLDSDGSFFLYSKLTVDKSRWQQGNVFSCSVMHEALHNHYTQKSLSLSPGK
# B3: anti-TRGV9/anti-BCMA bispecific antibody BCV9B106 (B3) (bispecific antibody, human IgG1, kappa, L234A L235A)
# scFv-Fc: DIQMTQSPASLSASVGETVTITCRASENIHNYLAWYQQKQGKSPQLLVYNAKTLADGVPSRFSGSGSGTQYSLKINSLQPEDFGNYYCQHFWSYPLTFGAGTKLELKGGSEGKSSGSGSESKSTGGSQGQMQQSGAELVKPGASVKLSCKTSGFTFSSNYISWLKQKPGQSLEWIAWIHGGTGGIGYNQKFTGKAQLTVDTSSTTAYMQFSSLTTEDSAIYYCARRGYGAWFAYWGQGTLVTVSAEPKSSDKTHTCPPCPAPEAAGGPSVFLFPPKPKDTLMISRTPEVTCVVVSVSHEDPEVKFNWYVDGVEVHNAKTKPREEQYNSTYRVVSVLTVLHQDWLNGKEYKCKVSNKALPAPIEKTISKAKGQPREPQVYVYPPSREEMTKNQVSLTCLVKGFYPSDIAVEWESNGQPENNYKTTPPVLDSDGSFALVSKLTVDKSRWQQGNVFSCSVMHEALHNHYTQKSLSLSPGK
# heavy: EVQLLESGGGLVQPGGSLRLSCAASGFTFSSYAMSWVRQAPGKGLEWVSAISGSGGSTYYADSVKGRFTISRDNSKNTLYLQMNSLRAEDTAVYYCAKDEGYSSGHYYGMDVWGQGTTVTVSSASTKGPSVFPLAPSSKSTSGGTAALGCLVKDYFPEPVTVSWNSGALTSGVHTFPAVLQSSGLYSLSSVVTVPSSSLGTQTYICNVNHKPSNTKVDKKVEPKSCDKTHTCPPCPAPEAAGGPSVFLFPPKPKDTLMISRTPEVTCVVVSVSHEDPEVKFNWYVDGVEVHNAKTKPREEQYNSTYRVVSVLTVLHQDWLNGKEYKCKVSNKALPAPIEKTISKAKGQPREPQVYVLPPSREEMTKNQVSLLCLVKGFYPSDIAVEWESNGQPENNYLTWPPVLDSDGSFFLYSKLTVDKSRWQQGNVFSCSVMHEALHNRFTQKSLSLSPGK
# light: EIVLTQSPGTLSLSPGERATLSCRASQSISSSFLTWYQQKPGQAPRLLIYGASSRATGIPDRFSGGGSGTDFTLTISRLEPEDFAVYYCQHYGSSPMYTFGQGTKLEIKRTVAAPSVFIFPPSDEQLKSGTASVVCLLNNFYPREAKVQWKVDNALQSGNSQESVTEQDSKDSTYSLSSTLTLSKADYEKHKVYACEVTHQGLSSPVTKSFNRGEC
# B4: anti-TRGV9/anti-BCMA bispecific antibody (HC1: VG9B420-LH-scFv; HC2: BCMA-Fab (BCMB519-Fab)) (BCV9B71.001) (bispecific antibody, human IgG1, kappa, L234A L235A)
# scFv: EIVMTQSPGTLSLSPGDRATLSCRASQSVASSYLAWYQQKPGQSPRLLIYGASSRATGIPDRFSGSGSGTDFTLTISRLEPEDFAVYYCQQYGSSPPYTFGQGTRLEIKGGSEGKSSGSGSESKSTGGSEVQLVESGGGLVKPGGSLRLSCSASGFTFSNYDMNWVRQAPGKGLEWVSSISSSSSYIYYADSVKGRFTISRDNAKNSLYLQMNSLRAEDTAVYHCARDVGVTTDYYYYGMDVWGQGTMVTVSSEPKSSDKTHTCPPCPAPEAAGGPSVFLFPPKPKDTLMISRTPEVTCVVVSVSHEDPEVKFNWYVDGVEVHNAKTKPREEQYNSTYRVVSVLTVLHQDWLNGKEYKCKVSNKALPAPIEKTISKAKGQPREPQVYVYPPSREEMTKNQVSLTCLVKGFYPSDIAVEWESNGQPENNYKTTPPVLDSDGSFALVSKLTVDKSRWQQGNVFSCSVMHEALHNHYTQKSLSLSPGK
# heavy: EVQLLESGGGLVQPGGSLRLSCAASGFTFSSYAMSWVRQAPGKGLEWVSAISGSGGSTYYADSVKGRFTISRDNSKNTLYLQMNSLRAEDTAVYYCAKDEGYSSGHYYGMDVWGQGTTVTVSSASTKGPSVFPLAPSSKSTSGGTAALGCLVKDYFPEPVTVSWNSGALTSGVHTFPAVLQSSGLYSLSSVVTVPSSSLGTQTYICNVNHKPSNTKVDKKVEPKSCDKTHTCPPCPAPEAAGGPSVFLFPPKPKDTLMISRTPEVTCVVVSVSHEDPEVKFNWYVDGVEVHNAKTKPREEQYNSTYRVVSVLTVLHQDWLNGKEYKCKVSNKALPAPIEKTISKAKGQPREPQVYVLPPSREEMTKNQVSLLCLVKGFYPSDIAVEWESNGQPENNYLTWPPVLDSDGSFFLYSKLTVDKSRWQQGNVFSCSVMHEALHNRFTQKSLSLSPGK
# light: B3 light
# B5: anti-CD33 antibody (clone C33B904) (antibody, V domains shown)
# VH: EVQLVESGGGLVQPGRSLRLSCAASGFTFDDYAMHWVRQAPGKGLEWVSGIGWSGGSIVYADSVKGRFTISRDNAKNSLYLQMNSLRAEDTALYYCAKDSPYGDFFDYWGQGTLVTVSS
# VL: DIVMTQSPDSLAVSLGERATINCKSSQTVFYSSNNKNYLAWYQQKPGQPPKLLISWASTRKSGVPDRFSGSGSGTDFTLTVSSLQAEDVAVYYCQHYYSTPYTFGQGTKLEIK
# B6: VG1 (anti-TRGV9/anti-CD123 bispecific antibody) (bispecific antibody, human IgG4 S228P, kappa, F234A L235A)
# heavy 1: EVQLQQSGAELARPGASVKLSCKASGFTFTDHYINWVKQRTGQGLEWIGQIYPGDGNTYYNQKFKGKATLTADKSSSTAYMQLSSLTSEDSAVYFCAPNYGDYTIDFWGQGTSVTVSSASTKGPSVFPLAPCSRSTSESTAALGCLVKDYFPEPVTVSWNSGALTSGVHTFPAVLQSSGLYSLSSVVTVPSSSLGTKTYTCNVDHKPSNTKVDKRVESKYGPPCPPCPAPEAAGGPSVFLFPPKPKDTLMISRTPEVTCVVVDVSQEDPEVQFNWYVDGVEVHNAKTKPREEQFNSTYRVVSVLTVLHQDWLNGKEYKCKVSNKGLPSSIEKTISKAKGQPREPQVYTLPPSQEEMTKNQVSLSCAVKGFYPSDIAVEWESNGQPENNYKTTPPVLDSDGSFFLVSRLTVDKSRWQEGNVFSCSVMHEALHNRFTQKSLSLSLGK
# light 1: DIVMSQSPSSLAVSVGEKVTMSCKSSQSLLYSSNQKNYLAWYQQKPGQSPKLLIYWASTRESGVPDRFTGSGSGTDFTLTISSVKAEDLAVYYCQQYYRYHTFGTGTKLEIKRTVAAPSVFIFPPSDEQLKSGTASVVCLLNNFYPREAKVQWKVDNALQSGNSQESVTEQDSKDSTYSLSSTLTLSKADYEKHKVYACEVTHQGLSSPVTKSFNRGEC
# heavy 2: EVQLVQSGAEVKKPGESLKISCKGSGYSFTSYWISWVRQMPGKGLEWMGIIDPSDSDTRYSPSFQGQVTISADKSISTAYLQWSSLKASDTAMYYCARGDGSTDLDYWGQGTLVTVSSASTKGPSVFPLAPCSRSTSESTAALGCLVKDYFPEPVTVSWNSGALTSGVHTFPAVLQSSGLYSLSSVVTVPSSSLGTKTYTCNVDHKPSNTKVDKRVESKYGPPCPPCPAPEAAGGPSVFLFPPKPKDTLMISRTPEVTCVVVDVSQEDPEVQFNWYVDGVEVHNAKTKPREEQFNSTYRVVSVLTVLHQDWLNGKEYKCKVSNKGLPSSIEKTISKAKGQPREPQVYTLPPSQEEMTKNQVSLWCLVKGFYPSDIAVEWESNGQPENNYKTTPPVLDSDGSFFLYSRLTVDKSRWQEGNVFSCSVMHEALHNHYTQKSLSLSLGK
# light 2: EIVLTQSPGTLSLSPGERATLSCRASQSVSSSYLAWYQQKPGQAPRLLIYGASSRATGIPDRFSGSGSGTDFTLTISRLEPEDFAVYYCQQDYGFPWTFGQGTKVEIKRTVAAPSVFIFPPSDEQLKSGTASVVCLLNNFYPREAKVQWKVDNALQSGNSQESVTEQDSKDSTYSLSSTLTLSKADYEKHKVYACEVTHQGLSSPVTKSFNRGEC
# notes: Full-length human IgG4 in knob-into-hole format; also called anti-TRGV9×CD123; Vγ9/CD123 bispecific
# B7: anti-TRGV9/anti-BCMA bispecific antibody (VG9SB10SC1087_P18_D08-Fab RF, BCMA-scFv (BCMB519-scFv)) (BCV9B100.001) (bispecific antibody, human IgG1, kappa, L234A L235A)
# heavy: EVQLVQSGAEVKKPGSSVKVSCKASGDTFNNYAISWVRQAPGQGLEWMGGIIPFFGTPDYAQKFQGRVTITADKSTSTAYMELSGLRSEDTAVYYCARPGSGSPDYYYYDMDVWGQGTTVTVSSASTKGPSVFPLAPSSKSTSGGTAALGCLVKDYFPEPVTVSWNSGALTSGVHTFPAVLQSSGLYSLSSVVTVPSSSLGTQTYICNVNHKPSNTKVDKKVEPKSCDKTHTCPPCPAPEAAGGPSVFLFPPKPKDTLMISRTPEVTCVVVSVSHEDPEVKFNWYVDGVEVHNAKTKPREEQYNSTYRVVSVLTVLHQDWLNGKEYKCKVSNKALPAPIEKTISKAKGQPREPQVYVYPPSREEMTKNQVSLTCLVKGFYPSDIAVEWESNGQPENNYKTTPPVLDSDGSFALVSKLTVDKSRWQQGNVFSCSVMHEALHNRFTQKSLSLSPGK
# light: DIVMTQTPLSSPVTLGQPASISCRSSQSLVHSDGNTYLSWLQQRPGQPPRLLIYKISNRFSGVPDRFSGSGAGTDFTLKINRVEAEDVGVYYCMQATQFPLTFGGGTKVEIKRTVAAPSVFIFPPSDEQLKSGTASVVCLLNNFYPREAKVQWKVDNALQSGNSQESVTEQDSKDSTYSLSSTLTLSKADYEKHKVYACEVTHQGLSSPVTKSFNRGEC
# scFv: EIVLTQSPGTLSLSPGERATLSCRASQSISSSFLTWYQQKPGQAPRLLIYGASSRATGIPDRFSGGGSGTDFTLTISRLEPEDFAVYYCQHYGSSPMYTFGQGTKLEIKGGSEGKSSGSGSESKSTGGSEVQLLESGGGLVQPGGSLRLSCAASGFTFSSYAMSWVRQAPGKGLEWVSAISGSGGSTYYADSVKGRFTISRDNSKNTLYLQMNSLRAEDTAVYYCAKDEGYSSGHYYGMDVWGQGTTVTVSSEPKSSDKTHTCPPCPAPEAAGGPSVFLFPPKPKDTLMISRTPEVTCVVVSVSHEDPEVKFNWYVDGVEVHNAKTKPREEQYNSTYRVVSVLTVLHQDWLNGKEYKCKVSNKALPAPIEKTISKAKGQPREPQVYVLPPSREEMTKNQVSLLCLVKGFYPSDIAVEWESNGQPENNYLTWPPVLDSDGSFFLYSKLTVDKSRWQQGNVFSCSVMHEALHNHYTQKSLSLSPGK
# Columns and labels:
# [1] = molecular target: T1, B cell maturation antigen (BCMA); test: cell-based or functional assay
# [2] = molecular target: T1, B cell maturation antigen (BCMA); test: cell-based or functional assay; remark: listed apart in the source
# [3] = molecular target: T1, B cell maturation antigen (BCMA); test: cell-based or functional assay; remark: listed apart in the source
# [4] = molecular target: T1, B cell maturation antigen (BCMA); test: cell-based or functional assay; remark: listed apart in the source
# CD33 [5] = molecular target: T2, CD33 (human, UniProt P20138 18-364); test: FACS binding to MOLM-13 cells (CD33 high), MFI
# T2 construct: whole, on cells; also called CD33 on MOLM-13, Kasumi-1, OCI-AML-3 and Kasumi-3 cells
# CD33 [6] = molecular target: T2, CD33; test: FACS binding to Kasumi-1 cells (CD33 med), MFI
# CD33 [7] = molecular target: T2, CD33; test: FACS binding to OCI-AML-3 cells (CD33 low), MFI
# CD123 [8] = molecular target: T3, CD123 (human, UniProt P26951 19-378); test: flow cytometry, % Binding on Kasumi-3 cells (CD123 expressing cell line)
# T3 construct: whole, on cells; also called IL3RA; interleukin-3 receptor
# Excerpt: (§1) Cells were visualized on forward and sideward scatter and doublets were excluded. No secondary antibody control was used to establish background fluorescence and to gate on specific population. Background value was subtracted from main samples to get specific binding value.
# CD123 [9] = molecular target: T3, CD123; test: flow cytometry, % binding of bispecific antibody to Kasumi-3 cells (CD123 expressing)
# Excerpt: as §1
# CD123 [10] = molecular target: T3, CD123; test: flow cytometry, % Binding on Kasumi-3 cells (TAA expressing cell line); same graph as FIG. 30A
# Excerpt: as §1
# CD123 [11] = molecular target: T3, CD123; test: flow cytometry, % Binding; graph under the Kasumi-3 histogram, Kasumi-3 cells by legend paragraph 83
# Excerpt: as §1
# [12] = molecular target: T1, B cell maturation antigen (BCMA); test: cell-based or functional assay; remark: listed apart in the source
# T2 sequence (P20138 18-364): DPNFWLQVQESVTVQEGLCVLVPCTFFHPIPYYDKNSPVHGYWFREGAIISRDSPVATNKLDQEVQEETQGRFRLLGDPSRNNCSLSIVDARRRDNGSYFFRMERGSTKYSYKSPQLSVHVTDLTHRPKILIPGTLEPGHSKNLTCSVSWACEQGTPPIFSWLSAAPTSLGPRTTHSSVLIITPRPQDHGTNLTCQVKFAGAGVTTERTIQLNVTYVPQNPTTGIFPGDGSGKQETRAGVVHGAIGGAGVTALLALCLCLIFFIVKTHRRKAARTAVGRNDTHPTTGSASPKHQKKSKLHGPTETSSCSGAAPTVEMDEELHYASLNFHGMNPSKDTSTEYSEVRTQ
# T3 sequence (P26951 19-378): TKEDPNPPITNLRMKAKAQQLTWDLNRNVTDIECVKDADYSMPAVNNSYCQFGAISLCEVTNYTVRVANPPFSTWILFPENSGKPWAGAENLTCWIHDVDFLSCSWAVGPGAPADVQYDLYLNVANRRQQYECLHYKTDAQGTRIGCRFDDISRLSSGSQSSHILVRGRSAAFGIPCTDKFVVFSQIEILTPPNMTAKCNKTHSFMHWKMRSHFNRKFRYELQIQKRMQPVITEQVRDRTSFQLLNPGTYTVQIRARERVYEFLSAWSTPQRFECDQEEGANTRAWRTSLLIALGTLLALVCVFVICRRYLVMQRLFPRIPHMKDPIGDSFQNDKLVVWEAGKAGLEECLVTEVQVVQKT
binder,measurement,setting,value
B1,EC50 of γδ T-cell mediated cytotoxicity of H929 tumor cells,[1],5.84 nM
B2,EC50 of γδ T-cell mediated cytotoxicity of H929 tumor cells,[2],2.65 nM
B3,EC50 of γδ T-cell mediated cytotoxicity of H929 tumor cells,[3],33.7 nM
B4,EC50 of γδ T-cell mediated cytotoxicity of H929 tumor cells,[4],3.2 nM
B5,EC50,CD33 [5],~134 nM
same,EC50,CD33 [6],82.2 nM
same,EC50,CD33 [7],16.4 nM
B6,EC50,CD123 [8],0.43 nM
same,EC50,CD123 [9],0.354 nM
same,EC50 (read off the curve),CD123 [9],~0.05 mg/L
same,EC50,CD123 [10],0.43 nM
same,EC50,CD123 [11],0.354 nM
B7,EC50 of γδ T-cell mediated cytotoxicity of H929 tumor cells,[12],0.81 nM
